The record followed here is patent US20180023057A1.

The assay addresses E-cadherin on human iPS cells (TkDN4-M) (human) (UniProt P12830). Put plainly: cell-based or functional assay.

Chain of E-cadherin on human iPS cells (TkDN4-M) (human) (P12830 155-882 limits assumed): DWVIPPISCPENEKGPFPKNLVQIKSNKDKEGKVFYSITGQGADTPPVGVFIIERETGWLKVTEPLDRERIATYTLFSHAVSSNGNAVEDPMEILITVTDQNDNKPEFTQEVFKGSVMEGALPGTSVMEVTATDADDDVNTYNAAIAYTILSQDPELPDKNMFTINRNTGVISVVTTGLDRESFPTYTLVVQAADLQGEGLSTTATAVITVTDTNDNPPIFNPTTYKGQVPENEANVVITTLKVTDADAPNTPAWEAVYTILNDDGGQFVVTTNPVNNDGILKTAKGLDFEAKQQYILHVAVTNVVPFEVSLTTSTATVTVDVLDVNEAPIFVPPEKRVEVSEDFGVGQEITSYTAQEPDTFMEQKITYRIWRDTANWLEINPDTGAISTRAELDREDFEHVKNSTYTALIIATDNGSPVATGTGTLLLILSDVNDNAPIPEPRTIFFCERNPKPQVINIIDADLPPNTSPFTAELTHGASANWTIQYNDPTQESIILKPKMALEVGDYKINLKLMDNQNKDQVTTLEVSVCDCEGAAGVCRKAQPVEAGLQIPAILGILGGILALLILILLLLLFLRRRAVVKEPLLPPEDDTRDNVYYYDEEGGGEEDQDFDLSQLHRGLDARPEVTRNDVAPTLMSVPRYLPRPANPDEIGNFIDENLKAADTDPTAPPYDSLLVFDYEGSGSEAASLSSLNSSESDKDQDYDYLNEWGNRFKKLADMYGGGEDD

B1: E-cadherin-Fc fusion protein (Fc fusion, not shown: a dimerising Fc or GST)
chain: DWVIPPISCPENEKGEFPKNLVQIKSNRDKETKVFYSITGQGADKPPVGVFIIERETGWLKVTQPLDREAIAKYILYSHAVSSNGEAVEDPMEIVITVTDQNDNRPEFTQPVFEGFVAEGAVPGTSVMKVSATDADDDVNTYNAAIAYTIVSQDPELPHKNMFTVNRDTGVISVLTSGLDRESYPTYTLVVQAADLQGEGLSTTAKAVITVKDINDNAPVFNPSTYQGQVPENEVNARIATLKVTDDDAPNTPAWKAVYTVVNDPDQQFVVVTDPTTNDGILKTAKGLDFEAKQQYILHVRVENEEPFEGSLVPSTATVTVDVVDVNEAPIFMPAERRVEVPEDFGVGQEITSYTAREPDTFMDQKITYRIWRDTANWLEINPETGAIFTRAEMDREDAEHVKNSTYVALIIATDDGSPIATGTGTLLLVLLDVNDNAPIPEPRNMQFCQRNPQPHIITILDPDLPPNTSPFTAELTHGASVNWTIEYNDAAQESLILQPRKDLEIGEYKIHLKLADNQNKDQVTTLDVHVCDCEGTVNNCMKAGIVAAGLQV
B1 gave a diameter of hiPS cell aggregates on Day 5 of culture in Essential 8, E-cadherin-Fc 50 or 100 µg/ml for the first 48 hours of 500 µm; a sizes of hiPS cell aggregates 48 hours after the E-cadherin-Fc treatment, 5 µg/ml (without E-cadherin-Fc: 1000 to 3000 µm) of 300 to 700 µm; a sizes of hiPS cell aggregates 48 hours after the E-cadherin-Fc treatment, 10 µg/ml of 200 to 400 µm; a sizes of hiPS cell aggregates 48 hours after the E-cadherin-Fc treatment, 20 µg/ml of 100 to 500 µm. The sizes of hiPS cell aggregates 48 hours after the E-cadherin-Fc treatment, 50 µg/ml was 100 to 300 µm and the sizes of hiPS cell aggregates 48 hours after the E-cadherin-Fc treatment, 100 µg/ml was 150 to 700 µm.
